T1: Bfl-1, Q16548
T1 chain: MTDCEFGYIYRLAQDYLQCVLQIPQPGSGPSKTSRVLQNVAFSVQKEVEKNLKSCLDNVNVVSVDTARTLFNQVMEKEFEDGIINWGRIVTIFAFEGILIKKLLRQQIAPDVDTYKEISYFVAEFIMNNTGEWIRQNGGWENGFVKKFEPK

T2: Mcl-1, Q07820
T2 chain: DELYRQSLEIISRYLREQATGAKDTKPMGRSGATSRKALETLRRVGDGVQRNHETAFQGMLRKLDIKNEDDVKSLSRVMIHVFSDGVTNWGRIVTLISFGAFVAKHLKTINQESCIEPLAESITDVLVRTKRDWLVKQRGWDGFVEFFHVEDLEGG


What was measured:
Test in all cases: peptide SPOT array, c-Myc-tagged receptor at 1 uM or 100 nM, anti-c-Myc-Cy3
Bcl-xL, Q07817 = biological target: Bcl-xL, Q07817
Bcl-xL, Q07817, sequence (Q07817 1-209): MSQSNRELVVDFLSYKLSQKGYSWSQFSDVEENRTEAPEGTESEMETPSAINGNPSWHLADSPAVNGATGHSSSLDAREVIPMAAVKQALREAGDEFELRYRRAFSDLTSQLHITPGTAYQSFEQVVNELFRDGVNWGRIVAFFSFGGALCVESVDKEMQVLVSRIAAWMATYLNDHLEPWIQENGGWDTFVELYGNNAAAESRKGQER

Bfl-1, Q16548 = biological target: T1, Bfl-1, Q16548
Mcl-1, Q07820 = biological target: T2, Mcl-1, Q07820

Binder	SPOT signal as a fraction of Bim BH3's signal on the same receptor and array (Bcl-xL, Q07817)	SPOT signal as a fraction of Bim BH3's signal on the same receptor and array (Bfl-1, Q16548)	SPOT signal as a fraction of Bim BH3's signal on the same receptor and array (Mcl-1, Q07820)
APEEDFFSIHIRIVGDWTEGLFNACG [CYBB]	0.06	0.04	0.09
ADAIRPRCVELRHLLDDFINGNKKKW [MCF2L2]	0.56	0.31	0.26
GSPDSMFGISLAVLLDLNQDGFPDIA	0.07	0.07	0.04
KGTAVAICRRLGIFLDTEDVAGKAYT	0.16	0.09	0.16
SDIRDDISEQVRHVGRTVRGHPRKKL [TMEM184C]	0.92	0.29	0.32
VLAPVQLGKWDVLFCDEINLPDMDKY [DYNC1H1]	0.07	0.07	0.05
EAVTDGLKRALRSFGNALGNCILDKD [RAD52]	0.15	0.06	0.1
FSKREKLVEIDRNIGDERTMVFVETK [DDX4]	0.06	0.06	0.07
GSPDSMFGISLAVLGDLNQDGFPDIA	0.07	0.08	0.04
MQTLSELAKSFQDMLDRCLLVLHLEV	0.05	0.04	0.04
SEIMHSFAKCIEVMGDGCLNNEHFEE [IPO5]	0.09	0.03	0.04
TAGLRPGARLDRVCGQTLPSLRPEAA [SIPA1]	0.72	0.45	0.63
VDSIRPKCQELRHLLDQFSAEIARRR [MCF2L]	0.6	0.27	0.25
TETKATFGVHLKIVLDWTERFRDLLL [NOX4]	0.07	0.08	0.08
TSRINEVQVNLSLLGDDLLLPAQSTL [SPHKAP]	0.06	0.03	0.04
DDMFEPHSWNLKELSDDCFQQWGVRP [PRCP]	0.06	0.05	0.04

Binder	SPOT signal as a fraction of Bim BH3's signal on the same receptor and array (Bcl-xL, Q07817)	SPOT signal as a fraction of Bim BH3's signal on the same receptor and array (Bfl-1, Q16548)	SPOT signal as a fraction of Bim BH3's signal on the same receptor and array (Mcl-1, Q07820)
APGEEDLCAADNVICDNVGKDWRRLA [FADD]	0.06	0.04	0.03
KGTAVAICRRDGIFGDTEDVAGKAYT	0.08	0.06	0.08
CGEWTRRSLHLRVLLRQLILPTDKGV [FAM149A]	0.53	0.51	0.53
QEQEQHVPFDDHTYGDQLVSRFPQLN [NCAPH2]	0.05	0.04	0.04
VLLTLLVAAVLRCQLQDVQEAGSCVQ [COL2A1]	0.05	0.04	0.06
ACGDSVLARMDRELGDSLRRPQLRLW [SLC19A1]	0.27	0.13	0.15
PSECETLGSNDGHNADLLNENNILAK [ZFP90]	0.11	0.04	0.04
AFGLGDLPNLDGLVGDQLGDTERKRR [ADAMTS14]	0.05	0.04	0.04
ELLYGIWSNCLGLILDSFHMFFDSTA [SLC30A7]	0.07	0.06	0.06
MQTLSELAKSFQDMADRCLLVLHLEV	0.05	0.04	0.04
IQENVDISTVYQIFADEVLGSGQFGI [PRKD3]	0.08	0.05	0.04
ELDEDDLEAELDALGDELLADEDSSY [CHMP5]	0.06	0.03	0.03
HTALENCASLLCIRLDELQEALTSHC	0.05	0.03	0.03
HTALENCASLLCIRADELQEALTSHC	0.07	0.03	0.03
LALMMQLARELKTLLRDLGMAVVVTN [RAD51L3]	0.11	0.07	0.1
ERLKGQLCDVLLIVGDQKFRAHKNVL [ZNF295]	0.38	0.21	0.25

— publication PMC4072508, “Genome-Wide Prediction and Validation of Peptides That Bind Human Prosurvival Bcl-2 Proteins” (PLoS Computational Biology, 2014)
